{
  "source": "patent US20230107034A1",
  "about": "(BRIGHAM AND WOMEN S HOSPITAL, published 2023)",
  "binders": {"B1": {"name": "rB28 (recombinant B28, human IgG1 LALA) (antibody, V domains shown)", "VH": "QVQLVESGGGVVQPGRSVRLSCAATGFTFSSYGMHWVRQAPGKGLEWVAVIWFDGSNEYYADSVRGRFTISRDNSKNTLYLQMNSLRAEDTAVYYCARRGRVGVTRNYYYYNMDVWGQGTTVTVSS", "VL": "AIQMTQSPSSLSASVGDRVTITCRASQGIRNDLGWFQQKPGKAPKLLIYPASSLQSGVPSRFSGSGSDTDFTLTISSLQPEDFATYYCLQDYNFPFTFGPGTKVDIKR"}, "B2": {"name": "rB73 (recombinant B73, human IgG1 LALA) (antibody, V domains shown)", "VH": "QLQLQMSGPGLVKPSETLSLTCTVSGGSISSSSYYWGWIRQSPGKGLEWIGSIYYSGRTYYNPSLKSRVTISVDTSKNQFSLKLSSVTAADTAMYYCARRSSGRPYYWGQGTLVTVSS", "VL": "QAVVTQESALTTSPGGTVILTCRSSTGAVTTSNYANWVQEKPDHLFTGLIGETNNRAPGVPVRFSGSLIGDKAALTITGAQTEDDAMYFCALWYSTHWVFGGGTKLTVLG"}, "B3": {"name": "rC11 (recombinant C11, human IgG1 LALA) (antibody, V domains shown)", "VH": "QVQLQESGPGLVKPSETLSLTCTVSGGSISSYYWSWIRQPPGKGLEWIGSIYYSGTTKYNPSLKSRVTISVGTSKNQFSLKLNSVTAADTAVYYCARDNWGSRFDYWGQGTLVTVSS", "VL": "DIQMTQSPSSLSASVGDRVTITCRASQGIRNDLGWYQQKPGKAPTLLIYAASSLQSGVPSRFSGSGSGTDFTLTISSLQPEDFATYYCLQDFNYPYTFGQGTKLEIKR"}, "B4": {"name": "C11 (hybridoma-purified mAb) (antibody, V domains shown)", "VH": "B3 VH", "VL": "DIQMTQSPSSLSASVGDRVTITCRASQGIRNDLGWYQQKPGKAPTLLIYAASSLQSGVPSRFSGSGSGTDFTLTISSLQPEDFATYYCLQDFNYPYTFGQGTKLEIK", "notes": "Purified from a Trianni mouse hybridoma (FusC); also called purified clone C11"}, "B5": {"name": "C10 (hybridoma-purified mAb) (antibody, V domains shown)", "VH": "B3 VH", "VL": "B4 VL", "notes": "also called purified clone C10"}, "B6": {"name": "B75 (hybridoma-purified mAb) (antibody, V domains shown)", "VH": "QVQLVESGGGVVQPGRSLRLSCAASGFTFSSYGMHWVRQAPGKGLEWVAVIWYDGSYKYYADSVKGRFTISRDNSKNTLYLQMNSLRVEDTAVYYCAREGRTYYDFLTGYFDFWGQGTLVTVSS", "VL": "not shown"}, "B7": {"name": "rB75 (recombinant B75, human IgG1 LALA) (antibody, V domains shown)", "VH": "B6 VH", "VL": "not shown"}, "B8": {"name": "rB24 (recombinant B24, human IgG1 LALA) (antibody, V domains shown)", "VH": "EVQLLESGGGLVQPGGSLRLSCAASGFTFSSYAMTWVRQAPGEGLEWVSTISGSGIRTYYADSVKGRFTISRDNSKNTMYLQMNSLRAEDTAVYYCAKDGLTGDRRWYFDLWGRGTLVTVSS", "VL": "EIVMTQSPATLSLSPGERATLSCRASQSVSSSYFSWYQQKPGQAPRLLIYGASTRATGIPARFSGSGSGTDFTLTISSLQPEDFAVYYCQQDSNLPLTFGGGTKVEIKR"}},
  "key": {"[1]": {"target": "soluble synaptotoxic Aβ in aqueous human AD brain extract (human, UniProt P05067 18-701)", "sequence (P05067 18-701)": "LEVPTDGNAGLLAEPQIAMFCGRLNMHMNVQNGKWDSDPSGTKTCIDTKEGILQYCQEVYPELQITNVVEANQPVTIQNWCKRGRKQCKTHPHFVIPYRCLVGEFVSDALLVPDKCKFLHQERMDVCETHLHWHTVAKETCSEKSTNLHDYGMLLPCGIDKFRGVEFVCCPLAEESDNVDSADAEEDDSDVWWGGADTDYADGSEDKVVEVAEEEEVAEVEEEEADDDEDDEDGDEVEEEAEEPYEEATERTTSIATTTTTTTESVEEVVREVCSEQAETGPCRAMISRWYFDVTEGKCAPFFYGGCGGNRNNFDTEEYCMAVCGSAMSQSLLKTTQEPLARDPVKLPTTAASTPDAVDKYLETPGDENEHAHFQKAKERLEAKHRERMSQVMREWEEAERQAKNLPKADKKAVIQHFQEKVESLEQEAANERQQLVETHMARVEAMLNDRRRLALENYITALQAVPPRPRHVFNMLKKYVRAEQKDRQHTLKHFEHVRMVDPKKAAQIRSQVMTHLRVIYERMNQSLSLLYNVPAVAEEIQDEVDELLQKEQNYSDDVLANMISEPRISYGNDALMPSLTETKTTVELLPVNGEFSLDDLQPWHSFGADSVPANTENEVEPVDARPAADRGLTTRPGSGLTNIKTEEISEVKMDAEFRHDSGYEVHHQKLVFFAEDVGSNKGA", "assay": "cell-based or functional assay"}, "[2]": {"target": "T1, synthetic Aβ-derived diffusible ligands (ADDLs) (UniProt P05067 672-713)", "T1 construct": "domain: Aβ1-42; Oligomeric assembly; also called synthetic Aβ oligomers", "T1 sequence (P05067 672-713 limits assumed)": "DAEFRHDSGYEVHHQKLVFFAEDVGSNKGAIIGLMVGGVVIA", "assay": "binding profile column of Table 5"}, "[3]": {"target": "T2, monomeric Aβ (UniProt P05067 672-713)", "T2 construct": "also called Aβ monomer; Aβ1-40 monomer and/or Aβ1-42 monomer", "T2 sequence (P05067 672-713)": "as the sequence (P05067 672-713 limits assumed) above", "assay": "binding profile column of Table 5"}, "[4]": {"target": "T3, synthetic Aβ protofibrils (Aβ1-42-derived protofibrils) (UniProt P05067 672-713)", "T3 construct": "domain: Aβ1-42; Multimeric assembly; also called PF; PFs", "T3 sequence (P05067 672-713 limits assumed)": "as above", "assay": "binding profile column of Table 5"}},
  "note": "Values joined by “and” are separate entries in the source; they are usually repeats but may differ in a detail not shown here. Identical values can stand only once.",
  "data": [
    {"binder": "B1", "values": [
      {"measurement": "EC50 of neuritotoxicity protection, iN cellular assay, Mean", "setting": "[1]", "result": 1.53, "unit": "µg/mL"},
      {"measurement": "EC50 of neuritotoxicity protection, iN cellular assay, Run11", "setting": "[1]", "result": 1.76, "unit": "µg/mL"},
      {"measurement": "EC50 of neuritotoxicity protection, iN cellular assay, Run12", "setting": "[1]", "result": 1.34, "unit": "µg/mL"},
      {"measurement": "EC50 of neuritotoxicity protection, iN cellular assay, Run13", "setting": "[1]", "result": 1.5, "unit": "µg/mL"}
    ]},
    {"binder": "B2", "values": [
      {"measurement": "EC50 of neuritotoxicity protection, iN cellular assay, Mean", "setting": "[1]", "result": 1.94, "unit": "µg/mL"},
      {"measurement": "EC50 of neuritotoxicity protection, iN cellular assay, Run10", "setting": "[1]", "result": 1.98, "unit": "µg/mL"},
      {"measurement": "EC50 of neuritotoxicity protection, iN cellular assay, Run11", "setting": "[1]", "result": 1.97, "unit": "µg/mL"},
      {"measurement": "EC50 of neuritotoxicity protection, iN cellular assay, Run12", "setting": "[1]", "result": 1.49, "unit": "µg/mL"},
      {"measurement": "EC50 of neuritotoxicity protection, iN cellular assay, Run14", "setting": "[1]", "result": 2.32, "unit": "µg/mL"}
    ]},
    {"binder": "B3", "values": [
      {"measurement": "EC50 of neuritotoxicity protection, iN cellular assay, Mean", "setting": "[1]", "result": 2.79, "unit": "µg/mL"},
      {"measurement": "EC50 of neuritotoxicity protection, iN cellular assay, Run16", "setting": "[1]", "result": "3.58 µg/mL and 2.19 µg/mL"},
      {"measurement": "EC50 of neuritotoxicity protection, iN cellular assay, Run17", "setting": "[1]", "result": 2.58, "unit": "µg/mL"}
    ]},
    {"binder": "B4", "values": [
      {"measurement": "binding result", "setting": "[2]", "result": "no binding"},
      {"measurement": "binding result", "setting": "[3]", "result": "no binding"},
      {"measurement": "binding result", "setting": "[4]", "result": "no binding"}
    ]},
    {"binder": "B5", "values": [
      {"measurement": "binding result", "setting": "[2]", "result": "no binding"},
      {"measurement": "binding result", "setting": "[3]", "result": "no binding"},
      {"measurement": "binding result", "setting": "[4]", "result": "no binding"}
    ]},
    {"binder": "B6", "values": [
      {"measurement": "EC50 of neuritotoxicity protection, iN cellular assay, Mean", "setting": "[1]", "result": 2.05, "unit": "µg/mL"},
      {"measurement": "EC50 of neuritotoxicity protection, iN cellular assay, Run13", "setting": "[1]", "result": 2.05, "unit": "µg/mL"}
    ]},
    {"binder": "B7", "values": [
      {"measurement": "EC50 of neuritotoxicity protection, iN cellular assay, Mean", "setting": "[1]", "result": 4.08, "unit": "µg/mL"},
      {"measurement": "EC50 of neuritotoxicity protection, iN cellular assay, Run15", "setting": "[1]", "result": 2.11, "unit": "µg/mL"},
      {"measurement": "EC50 of neuritotoxicity protection, iN cellular assay, Run16", "setting": "[1]", "result": 6.04, "unit": "µg/mL"}
    ]},
    {"binder": "B8", "values": [
      {"measurement": "EC50 of neuritotoxicity protection, iN cellular assay, Mean", "setting": "[1]", "result": 3.97, "unit": "µg/mL"},
      {"measurement": "EC50 of neuritotoxicity protection, iN cellular assay, Run15", "setting": "[1]", "result": 2.53, "unit": "µg/mL"},
      {"measurement": "EC50 of neuritotoxicity protection, iN cellular assay, Run17", "setting": "[1]", "result": 5.4, "unit": "µg/mL"}
    ]}
  ]
}
